According to IntAct's records for PubMed 22982544:

B1: - (Plasmodium falciparum (isolate 3D7)), C0H519 (parent)
chain: MSDQINVKHKIGDTCRKLYSYFKTVNNTSTFIQNGTLTPSEFVDSGDFLVYKFKTWEWQEADKDRVVPYLPENKQFLITKNVPCKQRIKDLNNIVHDLKIVDNDWLLPSYEEDNNPTDIYEYLPNSEYTINDKNIYNYEEEEEDDNCDEAIDINNFYMENNLIKEHDPASINSTSCYSKNMLHDNLMKIRTYDVSITYDKYYQTPRIWLFGYNENGDPLKSEEIFEDILSDYSYKTVTYDPHPCTGVMTASIHPCKHAEAILNVVNNWISEEKEPRHDLYLLFLLKFISGVIPTIEYDFTTDIEIPRDSNAGL
B2: Autophagy-related protein (Plasmodium falciparum (isolate 3D7)), Q8IJK2 (parent)
chain: MPSLKDEVSFENRVAETHKIRSKYPNRIPVVCERANRSNLPIIEKKKFLVPMNMLVGEFKFILHQHINQSAYGSNMKLFRERTIYLFVNNIVPKTGLLMQDLYEMYKDEDGYLYMEYSCESCLG

Variants of: B1
Details: with q8ijk2, Q8IJK2

Variant	effect of a mutation on the interaction
MSDQINVKHKIGDTCRKLYSYFKTVNNTSTFIQNGTLTPSEFVDSGDFLVYKFKTWEWQEADKDRVVPYLPENKQFLITKNVPCKQRIKDLNNIVHDLKIVDNDALLPSYEEDNNPTDIYEYLPNSEYTINDKNIYNYEEEEEDDNCDEAIDINNFYMENNLIKEHDPASINSTSCYSKNMLHDNLMKIRTYDVSITYDKYYQTPRIWLFGYNENGDPLKSEEIFEDILSDYSYKTVTYDPHPCTGVMTASIHPCKHAEAILNVVNNWISEEKEPRHDLYLLFLLKFISGVIPTIEYDFTTDIEIPRDSNAGL [W105A]	decreasing interaction

Variants of: B2
Details: with c0h519, C0H519

Variant	effect of a mutation on the interaction
MPSLKDEVSFENRVAETHEIRSKYPNRIPVVCERANRSNLPIIEKKEFLVPMNMLVGEFKFILHQHINQSAYGSNMKLFRERTIYLFVNNIVPKTGLLMQDLYEMYKDEDGYLYMEYSCESCLG [K19E;K47E]	disrupting interaction
MPSLKDEVSFENRVAETHKIRSKYPNRIPVVCERANRSNLPIIEKKKFAVPMNMLVGEFKFILHQHINQSAYGSNMKLFRERTIYLFVNNIVPKTGLLMQDLYEMYKDEDGYLYMEYSCESCLG [L49A]	decreasing interaction
MPSLKDEVSFENRVAETHKIRSKYPNEIPVVCERANRSNLPIIEKKKFLVPMNMLVGEFKFILHQHINQSAYGSNMKLFRERTIYLFVNNIVPKTGLLMQDLYEMYKDEDGYLYMEYSCESCLG [R27E]	disrupting interaction
MPSLKDEVSFENRVAETHKIRSKYPNRIPVVCERANRSNLPIIASAKFLVPMNMLVGEFKFILHQHINQSAYGSNMKLFRERTIYLFVNNIVPKTGLLMQDLYEMYKDEDGYLYMEYSCESCLG [E44A;K45S;K46A]	decreasing interaction
MPSLKDEVSFENRVAETHKIRSKYPNRIPVVCERANRSNLPIIEKKEFLVPMNMLVGEFKFILHQHINQSAYGSNMKLFRERTIYLFVNNIVPKTGLLMQDLYEMYKDEDGYLYMEYSCESCLG [K47E]	disrupting interaction
